Measurements published in US20030032157A1, “Polypeptides interactive with Bcl-XL” (priority 2001, published 2003).

Legend:
[1] = target: T1, human Bcl-XL protein produced as a GST fusion (Homo sapiens, UniProt Q07817); assay: Binding of mRNA display constructs to Bcl-XL-GST fusion protein immobilized on glutathione Sepharose beads (scintillation counting); conditions: BH3 domain or control peptides as individual mRNA display constructs, 1 hr 4° C.
T1 construct: made in house; host or cells: E. coli BL21 (DE3) pLysS
Protocol: Detection of a polypeptide binding to a Bcl-XL-glutathione S-transferase (GST) fusion protein was carried out as follows. Twenty microliters of glutathione Sepharose 4B slurry (AP Biotech) was aliquoted to a microcentrifuge tube and washed with PBS. The Bcl-XL-GST fusion protein (60 μg), prepared as describe above, was added and allowed to bind to the Sepharose beads for 1 hr at 4° C. The beads were then re-washed in selection buffer (50 mM Tris-HCL pH 7.5, 150 mM KCl, 0.05% Triton X-100, 0.5 mg/ml BSA, and 0.1 mg/ml salmon sperm DNA). […] The extent of binding between the Bcl-XL-GST fusion protein and the mRNA display constructs or free peptides was determined by scintillation counting each fraction, including the recovered beads.
Members of the Bcl-2 family of apoptotic proteins function via homo- and heterodimerization, occurring primarily through the binding of a single α-helix designated the BH3 domain (Bcl-2 Homology domain 3) in a corresponding pocket produced by three α-helices in the interacting partner (Diaz et al., J. Biol. Chem. 272:11350-11355, 1997; and Sattler et al., Science 275:983-986, 1997). […] The amount of peptide bound to the beads was determined by scintillation counting and graphed as the percent of input counts bound (FIG. 2B).

[2] = target: T2, Bcl-XL-GST fusion protein (Homo sapiens, UniProt Q07817); assay: Free purified polypeptide binding to Bcl-XL-GST fusion protein (additional selection, FIG. 9); conditions: purified free polypeptides
T2 construct: made in house; host or cells: E. coli BL21 (DE3) pLysS
Protocol: (§1) Detection of a polypeptide binding to a Bcl-XL-glutathione S-transferase (GST) fusion protein was carried out as follows. Twenty microliters of glutathione Sepharose 4B slurry (AP Biotech) was aliquoted to a microcentrifuge tube and washed with PBS. The Bcl-XL-GST fusion protein (60 μg), prepared as describe above, was added and allowed to bind to the Sepharose beads for 1 hr at 4° C. The beads were then re-washed in selection buffer (50 mM Tris-HCL pH 7.5, 150 mM KCl, 0.05% Triton X-100, 0.5 mg/ml BSA, and 0.1 mg/ml salmon sperm DNA). The Bcl-XL-GST beads were resuspended in 100 μl of selection buffer (approximately 11.5 μM Bcl-XL) and ^35S-labeled mRNA display construct or free peptide was added (approximately 10-60 nM) and incubated on a rotator for 1 hr at 4° C. The reaction was then transferred to a microcentrifuge column (BioRad) and unbound mRNA display constructs or free peptides were removed by a 10 sec spin at 1,000 rpm. The Sepharose beads were then washed three times with 500 μl of selection buffer. The extent of binding between the Bcl-XL-GST fusion protein and the mRNA display constructs or free peptides was determined by scintillation counting each fraction, including the recovered beads. […]

[3] = target: human Bcl-XL-GST fusion protein (human) [GST: P08515]; assay: purified labeled free peptide on immobilized Bcl-XL-GST
[4] = target: T3, human Bcl-XL-GST fusion protein (human, UniProt P08515 1-218 = GST; Q07817 1-211); assay: 35S-labeled mRNA display construct on Bcl-XL-GST glutathione Sepharose beads, scintillation counting
T3 construct: Made in E. coli, immobilized on glutathione Sepharose beads; whole entry named; also called Bcl-XL-glutathione S-transferase (GST) fusion protein; GST-BCL-XL
Protocol: as §1, with “³⁵S-labeled” for “^35S-labeled”

[5] = target: T3, human Bcl-XL-GST fusion protein; assay: labeled free peptide on Bcl-XL-GST beads, immobilized target varied from 11 nM to 28 µM
Protocol: Detection of a polypeptide binding to a Bcl-XL-glutathione S-transferase (GST) fusion protein was carried out as follows. Twenty microliters of glutathione Sepharose 4B slurry (AP Biotech) was aliquoted to a microcentrifuge tube and washed with PBS. The Bcl-XL-GST fusion protein (60 μg), prepared as describe above, was added and allowed to bind to the Sepharose beads for 1 hr at 4° C. The beads were then re-washed in selection buffer (50 mM Tris-HCL pH 7.5, 150 mM KCl, 0.05% Triton X-100, 0.5 mg/ml BSA, and 0.1 mg/ml salmon sperm DNA). The Bcl-XL-GST beads were resuspended in 100 μl of selection buffer (approximately 11.5 μM Bcl-XL) and ³⁵S-labeled mRNA display construct or free peptide was added (approximately 10-60 nM) and incubated on a rotator for 1 hr at 4° C. […] The extent of binding between the Bcl-XL-GST fusion protein and the mRNA display constructs or free peptides was determined by scintillation counting each fraction, including the recovered beads.
Purified radioactively labeled protein from the individual clones was incubated with immobilized Bcl-XL-GST for one hour and, after washing, the amount bound was determined by scintillation counting. […] The amount of peptide bound to Bcl-XL was determined by scintillation counting and normalized to that bound at the highest concentration. […]

[6] = target: T3, human Bcl-XL-GST fusion protein; assay: labeled free peptide on immobilized Bcl-XL-GST with Bak BH3 competitor
Protocol: Only three of the selected proteins (Bim, Bak, and Bax) were previously known to contain a BH3 domain. In order to determine if the other proteins bound to the BH3 domain binding site on Bcl-XL, a competition assay was performed. The Bak BH3 domain peptide used as a positive control was prepared by chemical synthesis and used to compete with individual Bcl-XL-binding polypeptides in a Bcl-XL binding assay. […] At a fixed concentration of immobilized Bcl-XL, the Bak BH3 domain-containing peptide […] (SEQ ID NO: 152), also containing a FLAG-M2 epitope, was added at the indicated concentration along with a trace amount of a selected Talin fragment. After binding for 1 hour, the unbound material was removed and the bound protein was quantitated. The bound protein was assayed by scintillation counting, normalized to that bound in the absence of competitor, and plotted versus competitor concentration.
A competition assay was performed for each of the selected Bcl-XL-binding polypeptides using 20 μM Bak BH3 competitor based on the titration shown in FIG. 6.

T3 sequence (P08515 1-218, tags or fused parts left off): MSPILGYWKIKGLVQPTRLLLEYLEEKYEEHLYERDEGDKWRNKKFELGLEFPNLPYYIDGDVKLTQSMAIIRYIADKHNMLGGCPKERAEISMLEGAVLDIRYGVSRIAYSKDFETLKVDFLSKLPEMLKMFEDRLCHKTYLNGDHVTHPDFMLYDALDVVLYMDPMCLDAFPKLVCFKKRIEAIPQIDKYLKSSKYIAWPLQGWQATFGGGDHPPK
human Bcl-XL-GST fusion protein (human) [GST: P08515], sequence (P08515 1-218, tags or fused parts left off): as above
T2 sequence (Q07817 1-211): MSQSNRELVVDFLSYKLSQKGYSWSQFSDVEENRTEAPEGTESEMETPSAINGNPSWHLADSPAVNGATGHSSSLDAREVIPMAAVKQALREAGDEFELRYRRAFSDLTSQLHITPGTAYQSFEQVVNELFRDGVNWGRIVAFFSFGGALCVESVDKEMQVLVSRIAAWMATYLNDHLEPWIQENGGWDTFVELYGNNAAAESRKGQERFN
T1 sequence (Q07817 1-211): as above

In the case of “Bcl-2: BH3 domain of Bcl-2 prepared as mRNA display construct (FIG. 2A) (PVVHLTLRQAGDDFSR)”, the “percent of input counts bound to Bcl-XL-GST” value [1] is reported as “no binding was observed”.

For “SRP9: selected SRP9 polypeptide of the additional selection, purified free polypeptide (IGEEFSRAAEKLYLAV)”, the “Binding to the Bcl-XL-GST fusion protein” value [2] was 0.65%.

Molecule “Bax (clone AttB-Hc-7) (from UniProt Q07812 40-95) (peptide)” has a percent bound [3] of 32%.

B1: BH3 domain of Bcl-2, mRNA display construct (peptide, UniProt P10415 91-106, looked up)
peptide: PVVHLTLRQAGDDFSR
notes: domain: BH3 domain; Peptide fused to its mRNA through puromycin; also called BH3 helix from Bcl-2
B1: no binding [4].

B2: Bak BH3 domain-containing peptide MGQVGRQLAIIGDDINRDYKDDDDKASA (peptide)
peptide: MGQVGRQLAIIGDDINRDYKDDDDKASA
notes: Chemically synthesized free peptide; also called selected Bak fragment
B2: binds [5].

B3: clone t53 (peptide)
chain: LDPVKDVLILSALRRMLWAADDFLEDLPFEQIG
notes: mRNA display clone from a known polypeptide
B3: binds [6].
